Laboratory results taken from the supplement of paper PMC12042874.
± gives the uncertainty stated by the source.

Assay: amyloid nucleation score (Sup35N fusion, yeast selection) (log enrichment); library NNK1; higher = more nucleation; inactive = no reads after selection
In short: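 The nucleation score, computed with DiMSum, is the log enrichment of output over input reads, centred on the mode score of non-aggregating sequences. Sequences with under 100 input reads were dropped. Reads were generated by Illumina sequencing of plasmid inserts from psi-negative yeast with Sup35N fused to peptides of 20 random codons, induced with 100 μM copper sulfate for 24 hours and grown 7 days at 30°C on medium lacking adenine and uracil.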

Row | Substance | amyloid nucleation score
1 | SPIVGTLFYFMLWNMSAHTR | 1.96 ± 0.26
2 | SPLMRFFSTDSGARIFLNMS | -0.388 ± 0.52
3 | SPLSYAI | 1.36 ± 0.58
4 | SPPSSNIFPCI | 0.052 ± 0.69
5 | SQFLLYSPINFLCFAENHNG | 6.36 ± 0.078
6 | SQLNCIDRTMGYDDRMEIRS | 0.014 ± 0.42
7 | SQQVHISNVHVLYLRWWTGC | 0.696 ± 0.74
8 | SRATVSFVSLGNLTFGTILC | 1.72 ± 0.36
9 | SRFNSWLCCEND | 1.76 ± 0.35
10 | SRGFDHITFF | -0.677 ± 1.2
11 | SRGITRQFESHTCAEHRCGS | -0.252 ± 0.97
12 | SRHFFTAKCQRPRFLWKSDR | -0.172 ± 1.2
13 | SRIFRKLHYSTWIQMRGLCP | -0.431 ± 0.28
14 | SRKVLTPVSPVSVRAARVGH | -0.979 ± 1.9
15 | SRLEKKGNWPVYSTQAVWMT | -0.421 ± 0.42
16 | SRLIY | -0.894 ± 0.4
17 | SRLMV | 0.547 ± 0.71
18 | SRMLAVKFKLVVTNCCVKLI | -0.598 ± 1.4
19 | SRPHTVWDMC | 0.245 ± 0.32
20 | SRPYLLRLR | 0.455 ± 0.57
21 | SRRCLLKNISSPCF | -1.82 ± 0.87
22 | SRVCYNRWLKLWDSDRPVIG | -0.001 ± 0.36

Row | Substance | amyloid nucleation score
23 | SRVRHFVSFFTV | -0.333 ± 0.58
24 | SRVSFLNFWN | 4.27 ± 0.15
25 | SSAVD | 0.329 ± 1.1
26 | SSCKWSSKPAHEFQVMTAPT | -0.007 ± 0.65
27 | SSCYLCLVVYSFTS | 5.3 ± 0.072
28 | SSDFY | -1.46 ± 1.3
29 | SSDSLYTYDMDWAWAGTP | 0.281 ± 0.38
30 | SSGRRWWTFQHHQIYLKVRS | 1.09 ± 0.59
31 | SSGYYFVQWTCYLRK | -1.27 ± 2.7
32 | SSIALYFGWLGSIR | 0.294 ± 0.85
33 | SSIIILSNMLTYK | 3.61 ± 0.1
34 | SSKCDLIDCSSD | inactive
35 | SSKSAWYVRWSVSVQNKGRG | -0.363 ± 0.44
36 | SSLKDSNLWSEIGTLWLTVM | -0.091 ± 0.25
37 | SSLKVLIPYSCYHFV | 2.76 ± 0.1
38 | SSLPRYNPR | inactive
39 | SSLVATPLGLELIKGRSSSL | 0.57 ± 1.2
40 | SSLVKTS | -0.44 ± 0.47
41 | SSLVVAWF | 0.219 ± 0.21
42 | SSMILSNGVFNCQMGFLACK | 0.461 ± 0.43
43 | SSMWFYLRM | -0.595 ± 1.9
44 | SSNWFPR | -0.07 ± 0.59

Row | Substance | amyloid nucleation score
45 | SSNYADNEGSAHQFGNRRES | -0.108 ± 0.43
46 | SSPDFMFYILNRALA | -0.526 ± 1.4
47 | SSPTLLSWVKW | 0.99 ± 0.58
48 | SSRDGTIRRGWIWVDVRVKS | 0.142 ± 0.48
49 | SSSGFNIFRLLV | -0.325 ± 0.25
50 | SSSSVVLTRLQPTTGSYEMT | -0.667 ± 1.6
51 | SSWQGLRNLHGSYEDQINVK | 4.17 ± 0.073
52 | SSYMLWFAIFVRNLNPLVFW | -0.871 ± 0.37
53 | STFNFTRIASADMSGTSTIW | 0.505 ± 0.33
54 | STFSSVTGYKPCY | 0.551 ± 1.2
55 | STLSVLLSWQN | 0.01 ± 0.41
56 | STTLQERVYSAPATDLRDWA | 0.246 ± 0.37
57 | STVFNGSGGEDVKKCPPHA | inactive
58 | STVIHN | 1.23 ± 0.84
59 | STVTTAYNDMSLIWQAARVL | 0.436 ± 0.57
60 | SVAFWSVCRVLGTDADMDRI | -0.254 ± 0.58
61 | SVCGSLSC | 1.16 ± 0.76
62 | SVKYMVIDFQLKRMEVVINK | 0.354 ± 0.36
63 | SVPAHFNRYMCNRGYCRFRR | inactive
64 | SVRANIA | 1.34 ± 0.38
65 | SVRGSYCYASLVCSDFL | -1.12 ± 0.84
66 | SVSFEDDISMASGCCFLRGC | -0.146 ± 0.25

Row | Substance | amyloid nucleation score
67 | SVSNTYERE | 0.879 ± 0.68
68 | SVTDRKV | 0.468 ± 0.41
69 | SVTWFIYAWWFLGGSL | -0.921 ± 2.4
70 | SVTWSYVTHLLLWLFGGAGL | 0.848 ± 0.76
71 | SVVRNESNSLVH | 0.065 ± 0.28
72 | SVYKVPVVYGINTRFYFSES | 1.18 ± 0.33
73 | SVYVGRGHFLQKFRRLLRFE | inactive
74 | SWASLIC | -0.838 ± 0.89
75 | SWCVTCVLA | 7.204 ± 0.053
76 | SWFIL | 0.428 ± 0.85
77 | SWFNISAVLENMGRYS | 0.26 ± 0.44
78 | SWFWHPYFCHRRIGSMGDGV | -0.017 ± 0.58
79 | SWGLGSFLY | 0.06 ± 0.36
80 | SWLVPR | -0.104 ± 0.25
81 | SWNFTLLD | inactive
82 | SWNKGLREED | 0.562 ± 0.72
83 | SWNLGADIAMDDHVESV | 0.601 ± 0.39
84 | SWRGICV | inactive
85 | SWSRRDVYKEGLDGGMGEGA | -1.07 ± 1.3
86 | SWSSKRNVWEHIVGESYEYF | inactive
87 | SWTKVHLLVQAL | -1.14 ± 0.86
88 | SWTVGSMLSLDIWHRVYLTT | -0.058 ± 0.44

Row | Substance | amyloid nucleation score
89 | SYDRNDFLGERSVGMH | 0.736 ± 0.36
90 | SYFFGACCVGMCRLWNLFYS | 0.857 ± 0.52
91 | SYGRLVGTWL | -0.111 ± 0.54
92 | SYKLAVIRKM | -0.28 ± 0.24
93 | SYLTGAEFFSTVRK | -0.745 ± 1.7
94 | SYNRIILTFWSFLL | 1.13 ± 0.35
95 | SYPFWYSHMIHCYRFAIFGL | -2.73 ± 2.4
96 | SYQLSSVMDLAWMTHSTFGS | 1.8 ± 0.2
97 | SYQSDDLWQETKPALSPLLE | 0.119 ± 0.46
98 | SYRGVRIGSGGLMYRGANSF | inactive
99 | SYSYDARNCNNTRDGNYNFL | -1.99 ± 1.1
100 | SYYRLGACSRCHYFFMIEAR | inactive
101 | TAESQAKQLSSNRKVGLTPS | 0.549 ± 0.27
102 | TAMKILPAQRGCIYVWHNRR | inactive
103 | TASCVIMELPVGTNDKYVWT | 0.296 ± 0.5
104 | TASIDEQHHWTRQY | 0.32 ± 0.36
105 | TATGGASETERTAVTMY | -0.609 ± 1.9
106 | TAWHLSMNALGNSSLDFKGR | 1.51 ± 0.16
107 | TCHLLPSICKSLWNHDNHGL | inactive
108 | TCRDYCASVSEEQIWLMVYR | 0.297 ± 0.67
109 | TCRFTHLLFWYFK | 0.246 ± 0.97
110 | TCVGDCGCIGWSTIFFSDYS | 1.43 ± 0.72

Row | Substance | amyloid nucleation score
111 | TDADYTPHVQSVPYYAHLII | 3.88 ± 0.14
112 | TDAQWGIFYDENIYPLDVFC | 0.075 ± 0.33
113 | TDCSSLC | -0.373 ± 0.31
114 | TDKSCRRNGTHAMVHFTPEL | -1.99 ± 1.7
115 | TDSAVRDWTRR | 0.532 ± 0.79
116 | TDSCYHCNLYMYHSS | 0.723 ± 0.9
117 | TDSEVAFVNGTNSQRWFFGW | 1.07 ± 0.53
118 | TDVMSHGSAETGWCFLMSAF | 0.124 ± 0.7
119 | TDYIHLSIMIDFLGFTFQDR | 1.46 ± 0.43
120 | TEGTYDNSSCHSDALGECLW | 0.281 ± 0.33
121 | TFCLLSINLEFINVLRLFKS | 3.58 ± 0.12
122 | TFECIIWFLGATVMSMQLFI | 1.93 ± 0.62
123 | TFFCTYTYLWLICIIGQYYF | 3.44 ± 0.11
124 | TFGSVGYI | 0.116 ± 0.45
125 | TFGTKRRLGL | 1.47 ± 0.5
126 | TFHNSYLYGTRNVWMLYSVR | 3.47 ± 0.091
127 | TFIAGAI | -0.44 ± 0.37
128 | TFIFAGDIT | 1.38 ± 0.17
129 | TFLTCYRPGPIDNSWRIVSM | 1.1 ± 0.41
130 | TFMLATDGV | 0.595 ± 0.69
131 | TFMNRLPMNLDLLIGLTCNL | 0.492 ± 0.38
